Source: patent US20230002480A1

Assays:
Assay in all cases: cell-based or functional assay
[1] = target: HIV-1 Env of pseudovirus TRO.11 (HIV-1)
[2] = target: HIV-1 Env of pseudovirus CNE52 (HIV-1)
[3] = target: HIV-1 Env of pseudovirus Q461.e2 (HIV-1)
[4] = target: HIV-1 Env of pseudovirus CNE19 (HIV-1)
[5] = target: HIV-1 Env of pseudovirus CNE53 (HIV-1)
[6] = target: HIV-1 Env of pseudovirus 6240_08_TA5_4622 (HIV-1)
[7] = target: HIV-1 Env of pseudovirus Ce1176_A3 (HIV-1)
[8] = target: HIV-1 Env of pseudovirus HIV-0013095-2.11 (HIV-1)
[9] = target: HIV-1 Env of pseudovirus 191955_A11 (HIV-1)
[10] = target: HIV-1 Env of pseudovirus Du156.12 (HIV-1)
[11] = target: HIV-1 Env of pseudovirus 1012_11_TC21_3257 (HIV-1)
[12] = target: HIV-1 Env of pseudovirus 0260.v5.c36 (HIV-1)
[13] = target: HIV-1 Env of pseudovirus THRO4156.18 (HIV-1)
[14] = target: HIV-1 Env of pseudovirus ZM247v1(Rev-) (HIV-1)
[15] = target: HIV-1 Env of pseudovirus AC10.0.29 (HIV-1)
[16] = target: HIV-1 Env of pseudovirus Ce2010_F5 (HIV-1)
[17] = target: HIV-1 Env of pseudovirus Ce1172_H1 (HIV-1)
[18] = target: HIV-1 Env of pseudovirus WEAU_d15_410_787 (HIV-1)
[19] = target: HIV-1 Env of pseudovirus 3365.v2.c2 (HIV-1)
[20] = target: HIV-1 Env of pseudovirus ZM109F.PB4 (HIV-1)
[21] = target: HIV-1 Env of pseudovirus CNE17 (HIV-1)
[22] = target: HIV-1 Env of pseudovirus SC422661.8 (HIV-1)
[23] = target: HIV-1 Env of pseudovirus CNE21 (HIV-1)
[24] = target: HIV-1 Env of pseudovirus HIV-16845-2.22 (HIV-1)
[25] = target: HIV-1 Env of pseudovirus T250-4 (HIV-1)
[26] = target: HIV-1 Env of pseudovirus 231965.c01 (HIV-1)
[27] = target: HIV-1 Env of pseudovirus BJOX028000.10.3 (HIV-1)
[28] = target: HIV-1 Env of pseudovirus 6041.v3.c23 (HIV-1)
[29] = target: HIV-1 Env of pseudovirus 6480.v4.c25 (HIV-1)
[30] = target: HIV-1 Env of pseudovirus P1981_C5_3 (HIV-1)
[31] = target: HIV-1 Env of pseudovirus T255-34 (HIV-1)
[32] = target: HIV-1 Env of pseudovirus X2088_c9 (HIV-1)
[33] = target: HIV-1 Env of pseudovirus 211-9 (HIV-1)
[34] = target: HIV-1 Env of pseudovirus 231966.c02 (HIV-1)
[35] = target: HIV-1 Env of pseudovirus 3016.v5.c45 (HIV-1)
[36] = target: HIV-1 Env of pseudovirus BJOX025000.01.1 (HIV-1)

## 10-1074 (antibody)
[1]
  IC50, titer in TZM.bl cells: 0.008 µg/mL
  IC80, titer in TZM.bl cells: 0.057 µg/mL
[2]
  IC50, titer in TZM.bl cells: 1.23 µg/mL
  IC80, titer in TZM.bl cells: 13.1 µg/mL
[3]
  IC50, titer in TZM.bl cells: > 50 µg/mL
  IC80, titer in TZM.bl cells: > 50 µg/mL
[4]
  IC50, titer in TZM.bl cells: 50 µg/mL
  IC80, titer in TZM.bl cells: > 50 µg/mL
[5]
  IC50, titer in TZM.bl cells: 0.039 µg/mL
  IC80, titer in TZM.bl cells: 0.141 µg/mL
[6]
  IC50, titer in TZM.bl cells: 0.068 µg/mL
  IC80, titer in TZM.bl cells: 0.306 µg/mL
[7]
  IC50, titer in TZM.bl cells: 0.019 µg/mL
  IC80, titer in TZM.bl cells: 0.07 µg/mL
[8]
  IC50, titer in TZM.bl cells: > 50 µg/mL
  IC80, titer in TZM.bl cells: > 50 µg/mL
[9]
  IC50, titer in TZM.bl cells: > 50 µg/mL
  IC80, titer in TZM.bl cells: > 50 µg/mL
[10]
  IC50, titer in TZM.bl cells: 0.015 µg/mL
  IC80, titer in TZM.bl cells: 0.076 µg/mL
[11]
  IC50, titer in TZM.bl cells: 0.008 µg/mL
  IC80, titer in TZM.bl cells: 0.059 µg/mL
[12]
  IC50, titer in TZM.bl cells: 0.099 µg/mL
  IC80, titer in TZM.bl cells: 0.16 µg/mL
[13]
  IC50, titer in TZM.bl cells: > 50 µg/mL
  IC80, titer in TZM.bl cells: > 50 µg/mL
[14]
  IC50, titer in TZM.bl cells: 0.042 µg/mL
  IC80, titer in TZM.bl cells: 0.186 µg/mL
[15]
  IC50, titer in TZM.bl cells: 0.022 µg/mL
  IC80, titer in TZM.bl cells: 0.11 µg/mL
[16]
  IC50, titer in TZM.bl cells: > 50 µg/mL
  IC80, titer in TZM.bl cells: > 50 µg/mL
[17]
  IC50, titer in TZM.bl cells: 0.047 µg/mL
  IC80, titer in TZM.bl cells: 0.166 µg/mL
[18]
  IC50, titer in TZM.bl cells: 0.104 µg/mL
  IC80, titer in TZM.bl cells: 0.375 µg/mL
[19]
  IC50, titer in TZM.bl cells: 0.131 µg/mL
  IC80, titer in TZM.bl cells: 0.45 µg/mL
[20]
  IC50, titer in TZM.bl cells: > 50 µg/mL
  IC80, titer in TZM.bl cells: > 50 µg/mL
[21]
  IC50, titer in TZM.bl cells: 2.69 µg/mL
  IC80, titer in TZM.bl cells: 13.3 µg/mL
[22]
  IC50, titer in TZM.bl cells: 0.091 µg/mL
  IC80, titer in TZM.bl cells: 0.418 µg/mL
[23]
  IC50, titer in TZM.bl cells: 0.067 µg/mL
  IC80, titer in TZM.bl cells: 0.181 µg/mL
[24]
  IC50, titer in TZM.bl cells: 1.17 µg/mL
  IC80, titer in TZM.bl cells: 5.83 µg/mL
[25]
  IC50, titer in TZM.bl cells: < 0.001 µg/mL
  IC80, titer in TZM.bl cells: 0.005 µg/mL

## PGT121 (antibody)
[1]
  IC50: 0.005 µg/mL
  IC80: 0.025 µg/mL
[2]
  IC50: 2.04 µg/mL
  IC80: 18.9 µg/mL
[3]
  IC50: > 50 µg/mL
  IC80: > 50 µg/mL
[4]
  IC50: 0.008 µg/mL
  IC80: 0.105 µg/mL
[26]
  IC50: > 50 µg/mL
  IC80: > 50 µg/mL
[5]
  IC50: 0.007 µg/mL
  IC80: 0.024 µg/mL
[27]
  IC50: > 50 µg/mL
  IC80: > 50 µg/mL
[6]
  IC50: 0.033 µg/mL
  IC80: 0.127 µg/mL
[7]
  IC50: 0.013 µg/mL
  IC80: 0.035 µg/mL
[8]
  IC50: > 50 µg/mL
  IC80: > 50 µg/mL
[28]
  IC50: > 50 µg/mL
  IC80: > 50 µg/mL
[9]
  IC50: > 50 µg/mL
  IC80: > 50 µg/mL
[29]
  IC50: < 0.001 µg/mL
  IC80: 0.004 µg/mL
[30]
  IC50: < 0.001 µg/mL
  IC80: < 0.001 µg/mL
[10]
  IC50: 0.004 µg/mL
  IC80: 0.017 µg/mL
[31]
  IC50: 18.7 µg/mL
  IC80: > 50 µg/mL
[11]
  IC50: 0.003 µg/mL
  IC80: 0.017 µg/mL
[12]
  IC50: 0.053 µg/mL
  IC80: 0.197 µg/mL
[13]
  IC50: > 50 µg/mL
  IC80: > 50 µg/mL
[32]
  IC50: 0.003 µg/mL
  IC80: 0.013 µg/mL
[33]
  IC50: 0.852 µg/mL
  IC80: 4.2 µg/mL
[14]
  IC50: 0.028 µg/mL
  IC80: 0.082 µg/mL
[15]
  IC50: 0.024 µg/mL
  IC80: 0.073 µg/mL
[34]
  IC50: > 50 µg/mL
  IC80: > 50 µg/mL
[16]
  IC50: > 50 µg/mL
  IC80: > 50 µg/mL
[17]
  IC80: 0.036 µg/mL
[18]
  IC50: 0.026 µg/mL
  IC80: 0.077 µg/mL
[20]
  IC50: 8.64 µg/mL
  IC80: > 50 µg/mL
[21]
  IC50: 7.6 µg/mL
  IC80: > 50 µg/mL
[22]
  IC50: 0.038 µg/mL
  IC80: 0.177 µg/mL
[23]
  IC50: 0.007 µg/mL
  IC80: 0.035 µg/mL
[24]
  IC50: 3.97 µg/mL
  IC80: 44.6 µg/mL
[35]
  IC50: > 50 µg/mL
  IC80: > 50 µg/mL
[25]
  IC50: < 0.001 µg/mL
  IC80: 0.005 µg/mL
[36]
  IC50: > 50 µg/mL
  IC80: > 50 µg/mL
